± gives the standard deviation of the averaged measurements.
System: ATP
Test: switch fluorescence ratio, 500 uM ATP over buffer (Cy3 cluster intensity, sum of 5 cycles each) (fold (ratio)); higher = stronger signal-on switching upon ATP binding; sequences stand for … in TCGTCGGCAGCGTCAGATGTGTATAAGAGACAGTTTTTTTTTTTTTTTTTTTTTTTTT…TC
Conditions: aptamer strand: ATP DNA aptamer (quencher-CACCTGGGGGAGTATTGCGGAGGAAGG + anchor), 100 nM annealed; ATP concentration: 500 uM
Method in brief: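 Cy3-labelled switching-strand clusters on a modified Illumina MiSeq flow-cell were annealed to 100 nM quencher-labelled ATP aptamer and imaged first in selection buffer, then after 15 min with 500 uM ATP at 22 °C. NaOH stripping and re-annealing separated each of five buffer/ATP cycles, and clusters outside 100-1000 RFU were excluded. The fluorescence ratio sums target-cycle Cy3 intensity over buffer-cycle Cy3 intensity per cluster and averages it per switch-domain sequence.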
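Note: ATP exposure 15 min at 22 °C before imaging.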

For AGCAGGAGGG, the switch fluorescence ratio was 1.022 ± 0.0081.
For AGCAGGCGAA, the switch fluorescence ratio was 1.009 ± 0.0035.
With AGCAGGGCTG the switch fluorescence ratio was 0.99566 ± 0.00073.
For AGCAGGGGAC, the switch fluorescence ratio was 1.18 ± 0.23.
With AGCAGGGGGA the switch fluorescence ratio was 1.01 ± 0.034.
Sequence AGCAGGGTGG has a switch fluorescence ratio of 1.02 ± 0.038.
With AGCAGGTGTG the switch fluorescence ratio was 1.18 ± 0.048.
With AGCAGTTGGG the switch fluorescence ratio was 1.03 ± 0.065.
AGCATAATTG showed a switch fluorescence ratio of 1.01 ± 0.0076.
Sequence AGCATACAAA has a switch fluorescence ratio of 0.98 ± 0.012.
AGCATAGTCG gave a switch fluorescence ratio of 1.04 ± 0.029.
Work on AGCATCATTT yielded a switch fluorescence ratio of 0.971 ± 0.024.
With AGCATGTGGT the switch fluorescence ratio was 1 ± 0.026.
Sequence AGCATTAATT has a switch fluorescence ratio of 0.988 ± 0.043.
AGCATTACGT was tested, and the switch fluorescence ratio was 2.02 ± 0.089.
With AGCATTGTGG the switch fluorescence ratio was 0.996 ± 0.018.
With AGCATTTTTC the switch fluorescence ratio was 1.02 ± 0.028.
Work on AGCCAGGGGG yielded a switch fluorescence ratio of 1.03 ± 0.043.
Sequence AGCCCTGGCG has a switch fluorescence ratio of 0.9504 ± 0.0071.
AGCCGAGTGC showed a switch fluorescence ratio of 1.02 ± 0.06.
AGCCGGGGGA gave a switch fluorescence ratio of 1.05 ± 0.071.
AGCCTCCGGT was tested, and the switch fluorescence ratio was 1.13 ± 0.073.
Sequence AGCCTTTGTC has a switch fluorescence ratio of 0.982 ± 0.041.
Work on AGCGAAATCT yielded a switch fluorescence ratio of 1.08 ± 0.03.
AGCGAACGGG was tested, and the switch fluorescence ratio was 1.05 ± 0.025.
AGCGACCCGG was tested, and the switch fluorescence ratio was 1.08 ± 0.033.
AGCGAGGTCT showed a switch fluorescence ratio of 0.977 ± 0.027.
Work on AGCGCTTATG yielded a switch fluorescence ratio of 1 ± 0.022.
For AGCGGATCGG, the switch fluorescence ratio was 0.991 ± 0.02.
In the case of AGCGGGGATA, the switch fluorescence ratio is reported as 1.05 ± 0.024.
Sequence AGCGGGGGGG has a switch fluorescence ratio of 1.02 ± 0.036.
With AGCGGGTTTC the switch fluorescence ratio was 1.02 ± 0.015.
Sequence AGCGTAGTGG has a switch fluorescence ratio of 1.027 ± 0.0061.
AGCGTATGCA showed a switch fluorescence ratio of 1.02 ± 0.024.
Sequence AGCGTGATAC has a switch fluorescence ratio of 4.4 ± 0.36.
In the case of AGCGTTGAAG, the switch fluorescence ratio is reported as 0.997 ± 0.022.
For AGCGTTGAGT, the switch fluorescence ratio was 0.985 ± 0.032.
Work on AGCTAATTCG yielded a switch fluorescence ratio of 1.03 ± 0.045.
AGCTAGCAG was tested, and the switch fluorescence ratio was 1.042 ± 0.0036.
Work on AGCTAGCAGG yielded a switch fluorescence ratio of 0.974 ± 0.039.
AGCTAGGGGA was tested, and the switch fluorescence ratio was 1.08 ± 0.077.
In the case of AGCTAGTATG, the switch fluorescence ratio is reported as 0.993 ± 0.016.
For AGCTATGCGC, the switch fluorescence ratio was 0.963 ± 0.056.
For AGCTATGTTT, the switch fluorescence ratio was 0.979 ± 0.04.
AGCTATTGGG gave a switch fluorescence ratio of 0.975 ± 0.045.
Work on AGCTCATCGC yielded a switch fluorescence ratio of 1.05 ± 0.023.
AGCTCCTCAT showed a switch fluorescence ratio of 1.1 ± 0.03.
AGCTCGACGC gave a switch fluorescence ratio of 1.19 ± 0.064.
Work on AGCTCGGGTA yielded a switch fluorescence ratio of 0.998 ± 0.025.
For AGCTCTGCTA, the switch fluorescence ratio was 1.02 ± 0.02.

Source: the supplement of paper PMC10126150
